The record followed here is the supplement of paper PMC9170038.

This series deals with MS2 coat protein. The series can be described thus: apparent KD of MS2 coat protein; designed switch direction (-1 OFF switch, 1 ON switch): 1; higher = weaker reporter binding. An outline of the steps:
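Designed RNA switches with common flanks were made on Illumina chips by stalled E. coli RNA polymerase. Titration with SNAP-549-labelled MS2 coat protein doubled from 0.7 or 1.5 nM up to 3 µM. Apparent KD is each design's median over clusters after curve-fitting normalised fluorescence.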

Where [1] appears, read: input ligand: microRNA oligo, concentration not stated.
Where [2] appears, read: Eterna round: R95, input ligand: FMN 200 uM.
The mark [3] stands for this setting: Eterna round: R95, input ligand: microRNA oligo, concentration not stated.
Setting [4] is: Eterna round: R95, input ligand: none.

As to “GAGCCAGUCCGAGGAUAUUCAUAUACAUGAGGAUCACCCAUGUAGGCUCAGAAAAGAGAGCCUUGGGAGAAGGCGGACUGGCUC [Xeonanisa<<4] (Eterna round: R96, puzzle: Same State NG 2)”, the “apparent KD of MS2 coat protein” value runs as follows: (input ligand: FMN 200 uM) 8.38 nM; under setting [1], 27.3 nM; (input ligand: none) 50.8 nM.
For “GAGGCACAUGAGGAUCACCCAUGUGGGCGGAACAUAGGAUAUCGCCAACAAUAAGCCCGGUGAGAAGGAUGAUGCC [Lexereat] (puzzle: Same State 1)”, the “apparent KD of MS2 coat protein” value under setting [2] came to 46.2 nM, the “apparent KD of MS2 coat protein” value under setting [3] came to 17.6 nM and the “apparent KD of MS2 coat protein” value under setting [4] stood at 36.4 nM.
For the sequence “GAGGCACAUGAGGAUCACCCAUGUGGGUAGAACAUAGGAUAUCACCAACAAAUUACCCGGUGAGAAGGAUGAUGCC [Zalaarza] (puzzle: Same State 1)”, the “apparent KD of MS2 coat protein” value under setting [3] stood at 151 nM.
Regarding “GAGGGAUGAGCGUAGGAUAUAGGAGGAGUGACAUGAGGAUCACCCAUGUGGUAUGAGGGAGGAUUCUAGAAGGACGCGGUAGAAG [JR_SS2_Sub064] (puzzle: Same State 2)”, the “apparent KD of MS2 coat protein” value by setting is: under setting [2], 66.4 nM; under setting [3], 172 nM; under setting [4], 235 nM.
With “GAGGGCGAAAGCAACAUGAGGAUCACCCAUGUCCUCGGAGGGCAGGAUAUCCGGCGGUAGCCGAAGGAGAAGGGUCGGUAAACC [AK SSNG3-V2-33] (Eterna round: R96, puzzle: Same State NG 3)”, the “apparent KD of MS2 coat protein” value is, setting by setting: (input ligand: FMN 200 uM) 258 nM; under setting [1], 214 nM; (input ligand: none) 184 nM.
Turning to “GAGUAGUUGGGAGGAUAUGCAUUGUUAUUAAAUGCAGAAGGUUUUAACAUGAGGAUCACCCAUGUAGGACUAUUCCUGUGUAUC [Parity 70 - Jieux - Same State NG 1] (Eterna round: R96, puzzle: Same State NG 1)”, the “apparent KD of MS2 coat protein” value reads like this: (input ligand: FMN 200 uM) 17.3 nM; under setting [1], 13.7 nM; (input ligand: none) 17.1 nM.
Taken in the same sequence, the figures for “GAGUGGAGGAGAGGAUAUACAAUGAUAAUCACAGUAGAAGGUUCUAACAUGAGGAUCACCCAUGUAGGACUAUUCCUGAGAGUU [Parity 50 - Jieux - Same State NG 1] (Eterna round: R96, puzzle: Same State NG 1)” were 10.8 nM, 9.56 nM and 12.8 nM.
Regarding “GAGUGGUGGAGAGGAUAUACAUUGUUAUUCACUGUAGAAGGUUCUAACAUGAGGAUCACCCAUGUAGGACUAUUCCUGUGUUUU [Parity 57 - Jieux - Same State NG 1] (Eterna round: R96, puzzle: Same State NG 1)”, the “apparent KD of MS2 coat protein” value under setting [1] worked out at 9.37 nM.
As for “GAUUCACAUGAGGAUCACCCAUGUCGUUUAAUGGGAGGAUAUACGUGGACCGUAGUCCGCGUAGAAGGCCUAAUUG [Mat - Same State 1 - Mod of JL - D24] (puzzle: Same State 1)”, the “apparent KD of MS2 coat protein” value under setting [3] stood at 74.4 nM.
Consider “GCAGAACAUGAGGAUCACCCAUGUCUCUAAUAUCGAGGAUAUGGGCAGGGUAUAUCCCAACCAGAAGGCGAACUGC [SS1 Teenbexe 14] (puzzle: Same State 1)”, for which the “apparent KD of MS2 coat protein” value reads like this: under setting [2], 51.7 nM; under setting [3], 140 nM; under setting [4], 205 nM.
For “GCAGGAAGCAAAGGAUAUGGAAGAUUACUCAGUCCAGAAGGUUGCUUCUUGGAACAUGAGGAUCACCCAUGUCACCGUUACGGC [Eternabot solution 30] (Eterna round: R96, puzzle: Same State NG 1)”, the “apparent KD of MS2 coat protein” value by setting is: (input ligand: FMN 200 uM) 15.8 nM; under setting [1], 19 nM; (input ligand: none) 14.5 nM.
Regarding “GCCAUCGAGUGAGGAUAUGGCACCGUUUCGGUGCCAGAAGGCAUGUCAAUUGACAUGAGGAUCACCCAUGUAUUAUCGAUGGCA [JL Fiskers NG1ss - 33 mod 4] (Eterna round: R96, puzzle: Same State NG 1)”, the “apparent KD of MS2 coat protein” value is, setting by setting: (input ligand: FMN 200 uM) 75.4 nM; under setting [1], 556 nM; (input ligand: none) 835 nM.
For “GCCAUCGCAUGAGGAUAUGGCACCGAAACGGUGCCAGAAGGCAUGUCGAAAGACAUGAGGAUCACCCAUGUAGUAUAGAUGGCA [Mat - Same State NG 1 - JL mod - D93] (Eterna round: R96, puzzle: Same State NG 1)”, the “apparent KD of MS2 coat protein” value runs as follows: (input ligand: FMN 200 uM) 222 nM; under setting [1], 228 nM; (input ligand: none) 900 nM.
“GCCAUCGCAUGAGGAUAUGGCACCGAAACGGUGCCAGAAGGCAUGUCGAAUGACAUGAGGAUCACCCAUGUAGUAUAGAUGGCA [Mat - Same State NG 1 - JL mod - D92] (Eterna round: R96, puzzle: Same State NG 1)”: the “apparent KD of MS2 coat protein” value turned out to be 52.9 nM (input ligand: FMN 200 uM), 571 nM under setting [1] and 628 nM (input ligand: none).
Taken in the same sequence, the figures for “GCGAAGAGGUAAGGAUAUGCAUGGCGGAGACAUGAGGAUCACCCAUGUUGGAGACGAAAUCUAGGGUAGAAGGUACCAGGACGC [AK SSNG2-V2-13] (Eterna round: R96, puzzle: Same State NG 2)” were 41.5 nM, 64.6 nM and 72.9 nM.
For “GCGAGCGUACUUGCAACAUGAGGAUCACCCAUGUUAACUGGACAGGAUAUGGUACCGUUUCGGUACCAGAAGGGUUCAUCAUGU [JL SSNG3 3.67] (Eterna round: R96, puzzle: Same State NG 3)”, in that order: 74.1 nM, 147 nM and 183 nM.
Taken in the same sequence, the figures for “GCGAGCGUACUUGCUACAUGAGGAUCACCCAUGUUUAUUGGACAGGAUAUGGUACCGUUUCGGUACCAGAAGGGUUCAUCAUGU [JL SSNG3 3.70] (Eterna round: R96, puzzle: Same State NG 3)” were 294 nM, 471 nM and 547 nM.
As to “GCGAGCGUACUUGCUACAUGAGGAUCACCCAUGUUUUAUGGACAGGAUAUGGUACCGUUUCGGUACCAGAAGGGUUCACAUGUG [JL SSNG3 3.82] (Eterna round: R96, puzzle: Same State NG 3)”, the “apparent KD of MS2 coat protein” value reads like this: (input ligand: FMN 200 uM) 133 nM; under setting [1], 186 nM; (input ligand: none) 254 nM.
In the case of “GCGGACCUGACAUGAGGAUCACCCAUGUUGCGGAGACGCAAUGAGGAUAUCGAUGGGUUUCCCGUCGAGAAGGCAUAAAUCCGC [JL SSNG3 3.93 mod 3] (Eterna round: R96, puzzle: Same State NG 3)”, the “apparent KD of MS2 coat protein” value is 15.1 nM (input ligand: FMN 200 uM), 16 nM under setting [1] and 25.2 nM (input ligand: none).
Consider “GCGGAGAGGUAAGGAUAUCCAUGGAAAAAACAUGAGGAUCACCCAUGUAGGAAAAAAACUAGGAGGGAGAAGGUACCGGGACGC [AK SSNG2-V2-20] (Eterna round: R96, puzzle: Same State NG 2)”, for which the “apparent KD of MS2 coat protein” value runs as follows: (input ligand: FMN 200 uM) 21.7 nM; under setting [1], 23.4 nM; (input ligand: none) 29.8 nM.
Turning to “GCUACCAAAGAAGCCAACAUGAGGAUCACCCAUGUAUGUUGGUAGGAUAUCGUUUGCAAAGCAAACGAGAAGGGCUAAGGUAGC [Mat - Same State NG 3 - JL Mod - D77] (Eterna round: R96, puzzle: Same State NG 3)”, the “apparent KD of MS2 coat protein” value is, setting by setting: (input ligand: FMN 200 uM) 138 nM; under setting [1], 99.2 nM; (input ligand: none) 107 nM.
Taken in the same sequence, the figures for “GCUAGAAUAAACGCCUACAUGAGGAUCACCCAUGUAUGUAGGCAGGAUAUCGUAUGCAAAGCAUACGAGAAGGGCCUUACUAGC [Mat - Same State NG 3 - JL Mod - D33] (Eterna round: R96, puzzle: Same State NG 3)” were 25.7 nM, 27.7 nM and 43.4 nM.
On to “GCUAGGAAAUAAGCCAACAUGAGGAUCACCCAUGUAUGUUGGUAGGAUAUCGUUUGCAAAGCAAACGAGAAGGGCUAACCUAGC [Mat - Same State NG 3 - JL Mod - D70] (Eterna round: R96, puzzle: Same State NG 3)”, for which the “apparent KD of MS2 coat protein” value came to 72.2 nM (input ligand: FMN 200 uM), 70.6 nM under setting [1] and 85.9 nM (input ligand: none).
For “GCUCCAUUACGAGGAUAUGGGAAAGGAAGUGUACCAGAAGGCGUGAAAAGGUACAUGAGGAUCACCCAUGUACCCGGGAGCAAA [PowerStrip SSNG 1.11] (Eterna round: R96, puzzle: Same State NG 1)”, in that order: 23.1 nM, 19.6 nM and 20.3 nM.
For the sequence “GCUCCGCAAUACUUUCACAUGAGGAUCACCCAUGUUCACGUUAAGGAUAUCUAUUGUGAGACAGUAGAGAAGGUAGCGAGCGAC [Eternabot solution 11] (Eterna round: R96, puzzle: Same State NG 3)”, the “apparent KD of MS2 coat protein” value worked out at 25.7 nM (input ligand: FMN 200 uM), 15.2 nM under setting [1] and 24.2 nM (input ligand: none).
For “GCUCGAAUCAAAACCAACAUGAGGAUCACCCAUGUAUGUUGGUAGGAUAUCGUUUGUAAAACAAACGAGAAGGGCCAAACGAGC [SameState NG3 #4] (Eterna round: R96, puzzle: Same State NG 3)”, in that order: 53 nM, 93.3 nM and 118 nM.
Take “GCUCGACGUACGGCCUACAUGAGGAUCACCCAUGUGACUGGGCAGGAUAUCUAAAUGCAGAAUGUAGAGAAGGGCCCGUCGAGC [SameState NG3 #50] (Eterna round: R96, puzzle: Same State NG 3)”: the “apparent KD of MS2 coat protein” value reads like this: (input ligand: FMN 200 uM) 323 nM; under setting [1], 35.9 nM; (input ligand: none) 384 nM.
